Source: paper PMC11481484

Columns and labels:
Assay in all cases: cross-linking + co-IP; BHK-21 cells 42 h post-electroporation with WT or mutant viral RNA cross-linked with 1 mM DSP in PBS, 10 min, room temperature, quenched with 125 mM glycine; lysis buffer 2 (10 mM sodium phosphate pH 7.4, 50 mM NaCl, 1% Triton X-100); IP with mAb E1-20 or control mAb; cross-link reversed by DTT; western blot with RuV pAb
[1] = target: Rubella virus E2 envelope glycoprotein of the second-site revertant (N277I in the Y281A background) (Rubella virus (RuV))
[2] = target: Rubella virus E2 envelope glycoprotein, pseudorevertant Y281V (Rubella virus (RuV))
[3] = target: Rubella virus E2 envelope glycoprotein, Y281A mutant (Rubella virus (RuV))

| Molecule | Cp/E2 ratio in the E1 mAb IP, normalised to WT (ratio, WT set to 1) [1] | Cp/E2 ratio in the E1 mAb IP, normalised to WT (ratio, WT set to 1) [2] | Cp/E2 ratio in the E1 mAb IP, normalised to WT (ratio, WT set to 1) [3] |
| --- | --- | --- | --- |
| Rubella virus capsid protein, D215A (second-site revertant) (from UniProt P08563 1-300) (natural protein) | 0.85 | – | – |
| Rubella virus capsid protein, wild type (natural protein) MASTTPITMEDLQKALEAQSRALRAGLAAGASQSRRPRPPRQRDSSTSGDDSGRDSGGPRRRRGNRGRGQRKDWSRAPPPPEERQESRSQTPAPKPSRAPPQQPQPPRMQTGRGGSAPRPELGPPTNPFQAAVARGLRPPLHDPDTEAPTEACVTSWLWSEGEGAVFYRVDLHFTNLGTPPLDEDGRWDPALMYNPCGPEPPAHVVRAYNQPAGDVRGVWGKGERTYAEQDFRVGGTRWHRLLRMPVRGLDGDTAPLPPHTTERIETRSARHPWRIRFGAPQAFLAGLLLAAVAVGTARA | – | 0.46 | 0.31 |
